The results in this text go back to PMC4132019.

This assay has as its target CRM1-HA (chromosome region maintenance 1) (human (HeLa cell cDNA)) (UniProt O14980). Description: pull-down.
UniProt O14980, sequence (O14980 whole entry): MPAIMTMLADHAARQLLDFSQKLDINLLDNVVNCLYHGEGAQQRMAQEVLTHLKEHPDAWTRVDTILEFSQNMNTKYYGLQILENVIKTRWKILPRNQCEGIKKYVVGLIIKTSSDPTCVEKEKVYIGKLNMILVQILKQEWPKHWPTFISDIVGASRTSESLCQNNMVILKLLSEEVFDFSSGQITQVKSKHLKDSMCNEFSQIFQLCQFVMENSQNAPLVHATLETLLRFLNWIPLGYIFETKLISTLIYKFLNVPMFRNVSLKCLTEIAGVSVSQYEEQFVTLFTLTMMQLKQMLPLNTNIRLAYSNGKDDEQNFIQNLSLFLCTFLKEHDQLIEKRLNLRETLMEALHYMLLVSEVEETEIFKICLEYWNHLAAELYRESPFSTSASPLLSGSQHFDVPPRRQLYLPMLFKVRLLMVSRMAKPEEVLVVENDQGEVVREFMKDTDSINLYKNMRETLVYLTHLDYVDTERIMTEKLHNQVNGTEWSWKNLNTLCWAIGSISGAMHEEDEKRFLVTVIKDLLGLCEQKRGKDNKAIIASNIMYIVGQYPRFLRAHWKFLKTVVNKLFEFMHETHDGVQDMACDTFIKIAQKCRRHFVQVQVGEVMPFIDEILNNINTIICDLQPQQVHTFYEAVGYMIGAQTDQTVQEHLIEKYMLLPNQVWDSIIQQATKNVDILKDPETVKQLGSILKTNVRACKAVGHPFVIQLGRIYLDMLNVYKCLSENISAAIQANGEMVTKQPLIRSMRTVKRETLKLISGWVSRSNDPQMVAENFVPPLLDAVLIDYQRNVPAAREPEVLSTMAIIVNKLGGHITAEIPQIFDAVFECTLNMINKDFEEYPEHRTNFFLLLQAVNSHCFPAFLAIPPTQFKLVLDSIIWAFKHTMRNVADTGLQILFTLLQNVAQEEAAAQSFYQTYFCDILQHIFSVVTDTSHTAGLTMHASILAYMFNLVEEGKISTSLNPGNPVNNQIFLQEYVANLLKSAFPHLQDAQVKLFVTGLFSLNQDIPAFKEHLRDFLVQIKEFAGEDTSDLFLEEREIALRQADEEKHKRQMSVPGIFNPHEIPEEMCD

On to “NP-FLAG (wild-type nucleoprotein of influenza A/WSN/33) (from UniProt P15682 1-498) (natural protein)”, for which the CRM1 binding (%WT) was 100 % of WT.
